We go through 1 molecule from article PMC11117807, “Comparative Study of Field-Effect Transistors Based on Graphene Oxide and CVD Graphene in Highly Sensitive NT-proBNP Aptasensors”.

In data set [1] the target is proBNP (UniProt P16860 27-134). The data set can be described thus: aptamer-functionalised CVD graphene FET (GFET); after long-term storage; unexpected concentration-dependent response; 0.01x PBS with Tween (1x PBS: 2.7 mM KCl, 137 mM NaCl, 10 mM phosphate, pH 7.4); LOD in artificial saliva; surface blocked with ethanolamine and BSA; temperature not stated. The following applies: protein: commercial.
Sequence of proBNP (P16860 27-134): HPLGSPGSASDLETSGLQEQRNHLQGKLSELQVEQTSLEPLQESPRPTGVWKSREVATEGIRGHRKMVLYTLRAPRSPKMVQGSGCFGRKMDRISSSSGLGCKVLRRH

Data set [2] addresses NT-proBNP (UniProt P16860 27-102). The data set can be described thus: aptamer-functionalised rGO-FET; 0.01x PBS with Tween; response 10 fg/mL to 100 pg/mL; LOD 100 fg/mL in artificial saliva; 0.01x PBS with Tween (1x PBS: 2.7 mM KCl, 137 mM NaCl, 10 mM phosphate, pH 7.4); LOD in artificial saliva; surface blocked with ethanolamine and BSA; temperature not stated. The following applies: protein: commercial.

Sequence of NT-proBNP (P16860 27-102): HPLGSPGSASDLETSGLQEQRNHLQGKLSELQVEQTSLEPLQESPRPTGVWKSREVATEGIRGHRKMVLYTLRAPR

B1: N20a aptamer (ssDNA)
DNA: GGCAGGAAGACAAACAGGTCGTAGTGGAAACTGTCCACCGTAGACCGGTTATCTAGTGGTCTGTGGTGCTGT
modifications: 5'-NH2
As for B1, the binding result in data set [1] and in data set [2] was “binds” throughout.
